Here are results for 34 variants from the RNAGym collection of RNA variant scans (doi:10.1093/nar/gkz1192).

The chains are these.
B1: CPEB3 Ribozyme (parent)
chain: UAACAGGGGGCCACAGCAGAAGCGUUCACGUCGCAGCCCCUGUCAGAUUCUGGUGAAUCUGCGAAUUCUGCUGUAUAUCUC

Variants of B1 are the subject of this series. Briefly: self-cleavage, relative activity (ratio to wild type); higher = more cleavage; in vitro, sequencing. In a few lines:
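For each CPEB3 ribozyme variant, relative activity is its cleaved/total read fraction divided by the unmutated ribozyme's. Barcoded error-prone PCR libraries were transcribed by T7 RNA polymerase (5 hours, 37°C) and held in DNase I for 15 min before an EDTA stop, with cleavage occurring throughout. Template-switching reverse transcription and Illumina sequencing were used to read the RNAs. A 5-read minimum applied, and results are the mean of three batches.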
Take UAACAGGGGGCCACAGCAGAAGCGUUCAGGUCGCAGCCCCUGUCAGAUUCUGGUGAAUCUGCGAAUUCUGCUGCAUAUCUC [C29G U74C]: the self-cleavage was 0.31.

For UAACAGGGGGCCACAGCAGAAGCGUUCAUGUCGCAGCCCCUGUCAGAUUCUGGUGAAUCUGCGCAUUCUGCUGUAUAUCUC [C29U A64C], the self-cleavage is 0.24.

As for UAACAGGGGGCCACAGCAGAAGCGUUCAUGUCGCAGCCCCUGUCAGAUUCUGGUGAAUCUGCGUAUUCUGCUGUAUAUCUC [C29U A64U], the self-cleavage is 0.25.

With UAACAGGGGGCCACAGCAGAAGCGUUCAUGUCGCAGCCCCUGUCAGAUUCUGGUGAAUCUGCGGAUUCUGCUGUAUAUCUC [C29U A64G], the self-cleavage came out at 0.23.

UAACAGGGGGCCACAGCAGAAGCGUUCAUGUCGCAGCUCCUGUCAGAUUCUGGUGAAUCUGCGAAUUCUGCUGUAUAUCUC [C29U C38U]: the self-cleavage is 0.16.

As for UAACAGGGGGCCACAGCAGAAGCGUUCAGGUCGCAGCCCCUGUCAGAUUCUGGCGAAUCUGCGAAUUCUGCUGUAUAUCUC [C29G U54C], the self-cleavage was 0.24.

Take UAACAGGGGGCCACAGCAGAAGCGUUCAUGUCGCAGCCCCUGUCAGAUUCUGGUGAAUCUGCGAAUUUUGCUGUAUAUCUC [C29U C68U]: the self-cleavage was found to be 0.42.

As for UAACAGGGGGCCACAGCAGAAGCGUUCAUGUCGCAGCCCCUGUCAGAUUCUGGUGAAUCUGCGAAUUCUGCUGUAUAUCUA [C29U C81A], the self-cleavage was 0.71.

Consider UAACAGGGGGCCACAGCAGAAGCGUUCAUGUCGCAGCCCCUGUCAGAUUCUGGUGAAUCUGCGAAUUCUGCUGUAUAUCUC [C29U], for which the self-cleavage was 0.51.

On to UAACAGGGGGCCACAGCAGAAGCGUUCAUGUCGCAGCCCCUGUCAGAUUCUGGUGAGUCUGCGAAUUCUGCUGUAUAUCUC [C29U A57G], for which the self-cleavage amounted to 0.41.

On to UAACAGGGGGCCACAGCAGAAGCGUUCAUGUCGCAGCCCCUGUCAGAUUCUGGUGAUUCUGCGAAUUCUGCUGUAUAUCUC [C29U A57U], for which the self-cleavage came out at 0.2.

Take UAACAGGGGGCCACAGCAGAAGCGUUCAUGUCGCAGCCCCUGUCAGAUUCUGGUGAAUCUGCGAAUUCUGCUGUGUAUCUC [C29U A75G]: the self-cleavage came out at 0.46.

As to UAACAGGGGGCCACAGCAGAAGCGUUCAUGUCGCAGCCCCUGUCAGAUUCUGGUGAAUCUGCGAAUUCUGCUGUUUAUCUC [C29U A75U], the self-cleavage came to 0.72.

Consider UAACAGGGGGCCACAGCAGAAGCGUUCAUGUCGCAGCCCCUGUCAGAUUCUGGUGAAUCUGGGAAUUCUGCUGUAUAUCUC [C29U C62G], for which the self-cleavage was 0.24.

For UAACAGGGGGCCACAGCAGAAGCGUUCAUGUCGCAGCCCCUGUCAGAUUCUGGUGAAUCUGUGAAUUCUGCUGUAUAUCUC [C29U C62U], the self-cleavage was 0.21.

Regarding UAACAGGGGGCCACAGCAGAAGCGUUCAGGUCGCAGCCCCUGUCAGAUUCUGGUGAAUCUGCGAAUUCGGCUGUAUAUCUC [C29G U69G], the self-cleavage came out at 0.12.

As to UAACAGGGGGCCACAGCAGAAGCGUUCAGGUCGCAGCCCCUGUCAGAUUCUGGUGAAUCUGCGAAUUCAGCUGUAUAUCUC [C29G U69A], the self-cleavage turned out to be 0.13.

Consider UAACAGGGGGCCACAGCAGAAGCGUUCAGGUCGCAGCCCCUGUCAGAUUCUGGUGAAUCUGCGAAUUCCGCUGUAUAUCUC [C29G U69C], for which the self-cleavage came out at 0.21.

In the case of UAACAGGGGGCCACAGCAGAAGCGUUCAUGUCGCAGCCCCUGUCUGAUUCUGGUGAAUCUGCGAAUUCUGCUGUAUAUCUC [C29U A45U], the self-cleavage was found to be 0.19.

With UAACAGGGGGCCACAGCAGAAGCGUUCAUGUCGCAGCCCCUGUCGGAUUCUGGUGAAUCUGCGAAUUCUGCUGUAUAUCUC [C29U A45G], the self-cleavage worked out at 0.42.

Take UAACAGGGGGCCACAGCAGAAGCGUUCAUGUCGCAGCCCCUGUCAGAUUCUGGUGAAUCUGCGAAUUCUGCUCUAUAUCUC [C29U G73C]: the self-cleavage turned out to be 1.15.

UAACAGGGGGCCACAGCAGAAGCGUUCAUGCCGCAGCCCCUGUCAGAUUCUGGUGAAUCUGCGAAUUCUGCUGUAUAUCUC [C29U U31C]: the self-cleavage is 0.31.

For UAACAGGGGGCCACAGCAGAAGCGUUCAUGACGCAGCCCCUGUCAGAUUCUGGUGAAUCUGCGAAUUCUGCUGUAUAUCUC [C29U U31A], the self-cleavage was determined as 0.2.

As for UAACAGGGGGCCACAGCAGAAGCGUUCAUGUCGCAGCCCCUGUCAGAUUCUGGUGAAUCUGCGAGUUCUGCUGUAUAUCUC [C29U A65G], the self-cleavage was 0.27.

As to UAACAGGGGGCCACAGCAGAAGCGUUCAGGUCGCAGCCCCUGUCAGAUUCUGGUGAAUCAGCGAAUUCUGCUGUAUAUCUC [C29G U60A], the self-cleavage turned out to be 0.29.

In the case of UAACAGGGGGCCACAGCAGAAGCGUUCAGGUCGCAGCCCCUGUCAGAUUCUGGUGAAUCCGCGAAUUCUGCUGUAUAUCUC [C29G U60C], the self-cleavage is 0.11.

UAACAGGGGGCCACAGCAGAAGCGUUCAUGUCGCAGCCCCUGUCAGAUUCUGGUGCAUCUGCGAAUUCUGCUGUAUAUCUC [C29U A56C]: the self-cleavage was 0.42.

UAACAGGGGGCCACAGCAGAAGCGUUCAUGUCGCAGCCCCUGUCAGAUUCUGGUGGAUCUGCGAAUUCUGCUGUAUAUCUC [C29U A56G]: the self-cleavage worked out at 0.38.

Turning to UAACAGGGGGCCACAGCAGAAGCGUUCAUGUCGCAGCCCCUGUCAGAUUCUGGUGUAUCUGCGAAUUCUGCUGUAUAUCUC [C29U A56U], the self-cleavage was 0.16.

For the variant UAACAGGGGGCCACAGCAGAAGCGUUCAUGUCGCAGCCCCUGUCAGAUUCUGGUGAAUAUGCGAAUUCUGCUGUAUAUCUC [C29U C59A], the self-cleavage amounted to 0.24.

Turning to UAACAGGGGGCCACAGCAGAAGCGUUCAUGUCGCAGCCCCUUUCAGAUUCUGGUGAAUCUGCGAAUUCUGCUGUAUAUCUC [C29U G42U], the self-cleavage worked out at 0.23.

UAACAGGGGGCCACAGCAGAAGCGUUCAUGUCGCAGCCCCUAUCAGAUUCUGGUGAAUCUGCGAAUUCUGCUGUAUAUCUC [C29U G42A]: the self-cleavage came to 0.21.

Turning to UAACAGGGGGCCACAGCAGAAGCGUUCAUGUCGCAGCCCCUGUCAGAUUCGGGUGAAUCUGCGAAUUCUGCUGUAUAUCUC [C29U U51G], the self-cleavage stood at 0.8.

On to UAACAGGGGGCCACAGCAGAAGCGUUCAUGUCGCAGCCCCUGUCAGAUUCCGGUGAAUCUGCGAAUUCUGCUGUAUAUCUC [C29U U51C], for which the self-cleavage amounted to 0.46.
